# ± gives the standard error. Fewer inactive variants are shown than the library holds.
# B1: glmS ribozyme (parent)
# chain: AUAAAAGCGCCAGAACUACAGAAAUGUAGUUGACGAGGAGGAGGUUUAUCGAAUUUUCGGCGGAUGCCUCCAAA
# Variants of: B1
# Assay: self-cleavage kobs at 2500 uM GlcN6P; higher = faster cleavage; RNA array
# Conditions: with glucosamine-6-phosphate
# How it was run: (§1)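 Glucosamine-6-phosphate in HEPES/KCl/Mg(OAc)2 buffer, at 40 μM to 10 mM, was flowed over barcoded ribozyme variants transcribed in situ by E. coli RNA polymerase on sequenced MiSeq chips. Tracking was through a hybridised Cy3 probe at 37 °C. kobs, kcat and KM came from exponential decay fits and weighted Michaelis–Menten fits of normalised per-tile medians.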
row,Variant,self-cleavage kobs at 2500 uM GlcN6P [s⁻¹]
1,C11U G44U C67G,0.00425 ± 0.0019
2,G9C U49A U54A C67A,< 1e-05
3,C11U A12C G32A G41A C68A,< 1e-05
4,G7U G43A U47G U56G,< 1e-05
5,C8U A12C A15C A33C U45G C50G,< 1e-05
6,C8A G13C U46G U56A U69C C70G,< 1e-05
7,A12G G32U C34U A53U,< 1e-05
8,C8A C10U G35A G38A C68U,4.94e-05 ± 1.7e-05
9,C11U C16A G44U G60A,< 1e-05
10,A12C A39G U49C,< 1e-05
11,C10G G43A A52G A53C C70U,< 1e-05
12,C11U A12G A15G,0.000326 ± 8.5e-05
13,C11G A52U C68U,< 1e-05
14,A12G G37U A53C G62A A64U C68G,< 1e-05
15,C8A G13C A36G U56G C70U,< 1e-05
16,A12C U55A C58A,8.77e-05 ± 1.8e-05
17,A12C G29A U45G U46C,0.000151 ± 5.3e-05
18,C11U C34A G44A,< 1e-05
19,A12U A48U C58U,< 1e-05
20,G9C A14U G29C,< 1e-05
21,C8A A33C A42G U65G,< 1e-05
22,C11A C34G A36U G40A A52G A53U,< 1e-05
23,C8G G32A U54G,< 1e-05
24,C11U A15C A48G U55A,< 1e-05
25,A12U A48U G51C G60U,< 1e-05
26,A12G G35U C67A,< 1e-05

row,Variant,self-cleavage kobs at 2500 uM GlcN6P [s⁻¹]
1,A12U A48U C70G,0.000115 ± 5e-05
2,A12U A33U G40U,3.71e-05 ± 1.4e-05
3,A12C G37U G38U,< 1e-05
4,C10A C16U A64U,< 1e-05
5,G9A G13U U57C,< 1e-05
6,A12C G44C U65C,< 1e-05
7,A12G A15U C71G,2.52e-05 ± 1.1e-05
8,C10U A36C G40U G59U C67G,< 1e-05
9,A12C A14U U31C U56G,0.0134 ± 0.0063
10,C8U U31A G43U U55A,< 1e-05
11,G9A U30A,< 1e-05
12,C8A U31C A42U U65G,< 1e-05
13,C10G G37C U49G C68G U69G,9.24e-05 ± 4.5e-05
14,C11A A14C A42C U55C A64G,< 1e-05
15,C8A G41A G44U,< 1e-05
16,C8G A36C A53C,< 1e-05
17,C8G G13U A39U C68G,< 1e-05
18,A12G G43U A48C U69G,< 1e-05
19,C10U A48C C58U,< 1e-05
20,G9U A15C G32C,< 1e-05
21,C11A U56A C67G,5.5e-05 ± 1.8e-05
22,C8U C11U A39C G51A G62C,< 1e-05
23,C11U A14C A39U U56C,7.9e-05 ± 2.4e-05
24,C8G A14G G32U A64U,< 1e-05
25,G9A A14C A15G G35C A39G A52C A53G,< 1e-05
26,G9C C11A G44U G63A C67U,< 1e-05

row,Variant,self-cleavage kobs at 2500 uM GlcN6P [s⁻¹]
1,A12G A15U G37U A42G U55A,< 1e-05
2,C10G U30G A39U G44C A48C,< 1e-05
3,C8U G51U U57C C58A,< 1e-05
4,A12G C34U A52U,< 1e-05
5,A12U C16G U30C,0.000813 ± 0.00031
6,G9C A42C A52C G66C,< 1e-05
7,G9A A12G U54A C58G C61G C70U,0.000354 ± 0.00012
8,A12U A15U U47C,0.000776 ± 0.00023
9,C11U G60A G62U C67G,< 1e-05
10,C11G G35C U49G,< 1e-05
11,C11U A15G G29U,< 1e-05
12,A12G A15G G44A U54A C61U,< 1e-05
13,C11A G35U C58G,< 1e-05
14,C8U A15U U31C A36G U46A A52U C58A C67U C70U,< 1e-05
15,A12G A33G G41C G66A,< 1e-05
16,C11U U54A C70G,9.38e-05 ± 2.4e-05
17,C10G C34A A52U,< 1e-05
18,C11U C16U A53C C68A C70G,< 1e-05
19,A12G A53U U55G,0.000166 ± 2.9e-05
20,C11G G13A G41A A52U A53C G63C C68G,< 1e-05
21,C10G A36G A52U,< 1e-05
22,C11A G29U A33C G63C,< 1e-05
23,C11U C16G C70G,5.75e-05 ± 2.7e-05
24,C11G U31A A42C,< 1e-05
25,C10G G41C G51A C61G,< 1e-05
26,G9A C61A A64U C67A,< 1e-05

# Variants of: B1
# Assay: self-cleavage kobs at 10000 uM GlcN6P; higher = faster cleavage; RNA array
# Conditions: with glucosamine-6-phosphate
# How it was run: as §1
row,Variant,self-cleavage kobs at 10000 uM GlcN6P [s⁻¹]
1,C11U A12G A15G,0.000749 ± 0.00017
2,G9A G13U U57C,< 1e-05
3,C10U A36C G40U G59U C67G,< 1e-05
4,C8A U31C A42U U65G,< 1e-05
5,C8G A36C A53C,< 1e-05
6,C11G G35C U49G,< 1e-05
7,C10G C34A A52U,< 1e-05
8,C11U C16U A53C C68A C70G,< 1e-05
9,C11U C16G C70G,0.000142 ± 4.4e-05
10,C11G U31A A42C,< 1e-05

# Source: the supplement of paper PMC7125110
